Data published in US20080267949A1, “Peptides capable of binding to serum proteins” (Ablynx N.V., priority 2006, published 2008).
Bridge positions count the residues as written; N and C are the ends. Ends that are not written are not given here.

What was measured:
ovalbumin = target: T1, ovalbumin (Gallus gallus, UniProt P01012); experiment: Phage binding assay on coated negative control antigen ovalbumin; details: for Binding to negative control ovalbumin (Example 4): 1/2 dilution series starting with 7.5×10^11 phages/mL; for Non-specific binding to irrelevant protein ovalbumin (Example 5): different phage concentrations; for Binding to negative control ovalbumin (Example 7): 1/2 dilution series starting with 10^12 phages/mL
T1 construct: purchased Sigma A5378
T1 sequence (P01012 1-386): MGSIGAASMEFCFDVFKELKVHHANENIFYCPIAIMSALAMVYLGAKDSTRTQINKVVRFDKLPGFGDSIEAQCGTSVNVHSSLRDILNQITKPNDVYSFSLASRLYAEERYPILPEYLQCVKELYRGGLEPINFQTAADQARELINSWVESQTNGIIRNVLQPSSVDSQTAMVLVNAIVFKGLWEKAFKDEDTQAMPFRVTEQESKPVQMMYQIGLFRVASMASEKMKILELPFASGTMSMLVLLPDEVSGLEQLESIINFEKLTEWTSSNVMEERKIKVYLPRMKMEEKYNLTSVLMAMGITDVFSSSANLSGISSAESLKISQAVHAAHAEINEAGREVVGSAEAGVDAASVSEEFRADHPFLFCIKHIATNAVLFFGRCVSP
Experimental: (§1) After two selection rounds, monoclonal phage were screened for binding on HSA versus negative control antigen, ovalbumin (A5378, Sigma). Wells of a Maxisorp microtiter plate (Nunc) were coated using 10 μg/mL HSA or ovalbumin and blocked with SuperBlock T20 PBS Blocking Buffer (Pierce) to prevent non-specific binding. Phages, produced in 96-well plate, were diluted 1/10 in 1:1 (v:v) Superblock T20 PBS Blocking Buffer:PBS+0.05% Tween-20 and incubated on both HSA and ovalbumin. Bound phages were detected using anti-M13 (GE Healthcare) and goat anti-mouse IRDye700 (Rockland) and signals were read-out on Odyssey (LI-COR Biosciences). […] Both ‘hits’ were selected from the same library, i.e. originating from llama 117 in the non-constrained format. […] This peptide is referred to as 17D12. Its full amino acid sequence is given in SEQ ID NO: 1, and its encoding nucleotide sequence is given in SEQ ID NO:2. The amino acid sequence of the CDR3 loop is given in SEQ ID NO:3.
(§2) The phage binding assay was performed essentially as described in example 3. Phages, produced in 10 mL culture volume, were incubated on both HSA and ovalbumin in a ½ dilution series, starting with 7.5×10^11 phages/mL. […] Non-specific binding to ovalbumin is slightly higher for the constrained truncated peptide.
(§3) Binding of 17D12, as selected from primary screening after 2 selection rounds on HSA, to serum albumin of different species [mouse serum albumin (MSA, A3559, Sigma), cynomolgus serum albumin (CSA, in-house production), bovine serum albumin (BSA, A6003, Sigma) and HSA] and to negative control antigens [ovalbumin, human tumor necrosis factor α (TNF, in-house production)] was assessed using different phage concentrations. Additionally, similar binding studies were performed with two truncated variants of 17D12. Both peptides, i.e. 17D12-CDR3-NC (SEQ ID NO: 26) and 17D12-CDR3-C (SEQ ID NO;27), lack the flanking FR residues of 17D12 and the former is a non-constrained loop, whereas the latter is constrained (FIG. 4).
(§4) The phage binding assay was performed essentially as described in example 4.
(§5) The phage binding assay to HSA and ovalbumin was performed essentially as described in example 4. Phages, produced in 10 mL culture volume, were incubated on both HSA and ovalbumin in a ½ dilution series, starting with 10^12 phages/mL.

[1] = target: T2, human tumor necrosis factor α (TNF) (Homo sapiens, UniProt P01375); experiment: Phage binding assay, specificity against negative control antigen TNF; details: different phage concentrations
T2 construct: made in house
Experimental: as §1, §3, §4

[2] = target: T3, cynomolgus serum albumin (CSA) (Macaca fascicularis, UniProt A2V9Z4); experiment: Phage binding assay, cross-reactivity to cynomolgus serum albumin; details: different phage concentrations
T3 construct: made in house
Experimental: as §1, §3, §4

[3] = target: T4, human serum albumin (HSA) (Homo sapiens, UniProt P02768); experiment: Phage binding assay: peptide expressed on pIII of M13 phage, on coated HSA (anti-M13 detection, Odyssey read-out); details: for Binding to HSA (Example 4): 1/2 dilution series starting with 7.5×10^11 phages/mL; for Binding to HSA (Example 5, cross-reactivity): different phage concentrations; for Binding to HSA (Example 7, VHH fusions on phage): 1/2 dilution series starting with 10^12 phages/mL
T4 construct: purchased Sigma A5763
Experimental: as §1, §2, §3, §4, §5

[4] = target: T5, bovine serum albumin (BSA) (Bos taurus, UniProt P02769); experiment: Phage binding assay, cross-reactivity to bovine serum albumin; details: different phage concentrations
T5 construct: purchased Sigma A6003
Experimental: as §1, §3, §4

[5] = target: T6, mouse serum albumin (MSA) (Mus musculus, UniProt P07724); experiment: Phage binding assay, cross-reactivity to mouse serum albumin; details: different phage concentrations
T6 construct: purchased Sigma A3559
Experimental: as §1, §3, §4

mouse serum albumin = target: T7, mouse serum albumin (mouse, UniProt P07724 25-608); experiment: phage binding assay on coated Maxisorp wells, 5 phage dilutions per peptide, Odyssey image
T7 construct: also called MSA
Experimental: as §3
(§6) The phage binding assay was performed essentially as described in example 4. Full length 17D12 peptide as well as truncated peptides, 17D12-CDR3-NC and 17D12-CDR3-C, bind dose-dependently to HSA and CSA, whereas reactivity to MSA and BSA was not apparent in the assay performed (FIG. 6). There is no significant non-specific binding of 17D12 and 17D12-CDR3-NC to irrelevant proteins tested (ovalbumin and TNF). In contrast, there is a subtle degree of non-specific binding with the constrained truncated peptide.

bovine serum albumin = target: T8, bovine serum albumin (bovine, UniProt P02769 25-607); experiment: as above
T8 construct: also called BSA
Experimental: as §3, §6

human serum albumin = target: T9, human serum albumin (human, UniProt P02768 25-609); experiment: phage binding assay: 10 µg/mL HSA coated on Maxisorp, M13 phage displaying the peptide on pIII in 1/2 dilution series, anti-M13 + goat anti-mouse IRDye700, Odyssey intensity
T9 construct: Bought protein; also called HSA
Experimental: After two selection rounds, monoclonal phage were screened for binding on HSA versus negative control antigen, ovalbumin (A5378, Sigma). Wells of a Maxisorp microtiter plate (Nunc) were coated using 10 μg/mL HSA or ovalbumin and blocked with SuperBlock T20 PBS Blocking Buffer (Pierce) to prevent non-specific binding. Phages, produced in 96-well plate, were diluted 1/10 in 1:1 (v:v) Superblock T20 PBS Blocking Buffer:PBS+0.05% Tween-20 and incubated on both HSA and ovalbumin. Bound phages were detected using anti-M13 (GE Healthcare) and goat anti-mouse IRDye700 (Rockland) and signals were read-out on Odyssey (LI-COR Biosciences). […] This peptide is referred to as 17D12. Its full amino acid sequence is given in SEQ ID NO: 1, and its encoding nucleotide sequence is given in SEQ ID NO:2. The amino acid sequence of the CDR3 loop is given in SEQ ID NO:3.
The phage binding assay was performed essentially as described in example 3. Phages, produced in 10 mL culture volume, were incubated on both HSA and ovalbumin in a ½ dilution series, starting with 7.5×10¹¹ phages/mL. […] Non-specific binding to ovalbumin is slightly higher for the constrained truncated peptide.

cynomolgus serum albumin = target: T10, cynomolgus serum albumin (cynomolgus, UniProt A2V9Z4 25-608); experiment: phage binding assay on coated Maxisorp wells, 5 phage dilutions per peptide (concentrations not given), Odyssey image
T10 construct: also called CSA; cynoSA
Experimental: as §3, §6

[6] = target: T11, ovalbumin (negative control antigen) (UniProt P01012 2-386); experiment: phage binding assay: ovalbumin coated on Maxisorp, M13 phage in 1/2 dilution series from 10^12 phages/mL, Odyssey intensity
T11 construct: Bought protein
T11 sequence (looked up): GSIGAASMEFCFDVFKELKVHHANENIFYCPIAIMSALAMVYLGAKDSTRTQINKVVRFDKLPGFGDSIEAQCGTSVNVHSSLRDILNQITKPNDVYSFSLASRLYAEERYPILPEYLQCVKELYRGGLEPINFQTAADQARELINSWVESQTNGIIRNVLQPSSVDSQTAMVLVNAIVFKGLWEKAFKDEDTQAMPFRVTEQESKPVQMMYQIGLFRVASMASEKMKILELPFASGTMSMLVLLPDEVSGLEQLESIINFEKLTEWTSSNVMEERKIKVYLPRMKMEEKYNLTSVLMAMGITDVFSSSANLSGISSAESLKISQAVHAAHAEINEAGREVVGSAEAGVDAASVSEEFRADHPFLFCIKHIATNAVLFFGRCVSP
Experimental: The phage binding assay to HSA and ovalbumin was performed essentially as described in example 4. Phages, produced in 10 mL culture volume, were incubated on both HSA and ovalbumin in a ½ dilution series, starting with 10¹² phages/mL. Dose-dependent binding to HSA was retained upon fusion of the peptide 17D12 at the C-terminus of a non-albumin binding intact VHH in the presence or absence of a GlySer linker (FIG. 9).

T5 sequence (P02769 25-607): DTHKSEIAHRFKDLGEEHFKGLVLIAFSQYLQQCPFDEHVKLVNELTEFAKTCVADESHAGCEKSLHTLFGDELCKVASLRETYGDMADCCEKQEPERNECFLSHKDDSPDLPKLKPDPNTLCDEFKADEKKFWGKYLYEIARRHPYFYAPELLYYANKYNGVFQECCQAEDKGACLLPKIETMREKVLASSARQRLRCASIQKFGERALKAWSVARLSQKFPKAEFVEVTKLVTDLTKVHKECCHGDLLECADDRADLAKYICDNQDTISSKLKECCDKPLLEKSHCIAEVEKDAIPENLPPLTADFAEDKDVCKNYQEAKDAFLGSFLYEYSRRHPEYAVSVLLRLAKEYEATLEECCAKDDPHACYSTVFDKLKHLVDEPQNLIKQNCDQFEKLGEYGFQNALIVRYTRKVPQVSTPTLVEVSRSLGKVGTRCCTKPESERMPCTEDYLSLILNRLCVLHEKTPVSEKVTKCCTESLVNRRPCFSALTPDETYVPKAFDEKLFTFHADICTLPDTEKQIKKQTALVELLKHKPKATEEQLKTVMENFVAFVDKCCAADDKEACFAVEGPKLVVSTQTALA
T2 sequence (P01375 77-233 limits assumed): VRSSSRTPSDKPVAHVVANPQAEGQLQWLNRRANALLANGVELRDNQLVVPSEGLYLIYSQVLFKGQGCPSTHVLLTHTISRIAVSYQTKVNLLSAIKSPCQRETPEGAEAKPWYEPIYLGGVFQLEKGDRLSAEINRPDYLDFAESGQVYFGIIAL
T3 sequence (A2V9Z4 25-608): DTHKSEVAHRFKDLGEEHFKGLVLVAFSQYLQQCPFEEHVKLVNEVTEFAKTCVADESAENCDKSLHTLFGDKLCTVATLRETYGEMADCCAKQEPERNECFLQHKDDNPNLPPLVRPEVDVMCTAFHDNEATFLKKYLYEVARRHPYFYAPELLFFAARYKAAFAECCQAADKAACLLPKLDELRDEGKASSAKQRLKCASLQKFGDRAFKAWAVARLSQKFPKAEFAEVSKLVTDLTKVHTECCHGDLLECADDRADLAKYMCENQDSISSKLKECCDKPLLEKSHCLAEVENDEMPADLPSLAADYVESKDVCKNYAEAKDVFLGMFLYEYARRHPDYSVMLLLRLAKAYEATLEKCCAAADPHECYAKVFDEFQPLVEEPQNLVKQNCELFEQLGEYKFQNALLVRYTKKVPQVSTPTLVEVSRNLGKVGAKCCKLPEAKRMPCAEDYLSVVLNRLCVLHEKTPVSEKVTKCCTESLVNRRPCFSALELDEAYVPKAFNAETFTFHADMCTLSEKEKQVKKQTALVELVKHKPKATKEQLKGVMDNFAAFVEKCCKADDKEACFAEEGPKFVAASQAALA
T6 sequence (P07724 25-608): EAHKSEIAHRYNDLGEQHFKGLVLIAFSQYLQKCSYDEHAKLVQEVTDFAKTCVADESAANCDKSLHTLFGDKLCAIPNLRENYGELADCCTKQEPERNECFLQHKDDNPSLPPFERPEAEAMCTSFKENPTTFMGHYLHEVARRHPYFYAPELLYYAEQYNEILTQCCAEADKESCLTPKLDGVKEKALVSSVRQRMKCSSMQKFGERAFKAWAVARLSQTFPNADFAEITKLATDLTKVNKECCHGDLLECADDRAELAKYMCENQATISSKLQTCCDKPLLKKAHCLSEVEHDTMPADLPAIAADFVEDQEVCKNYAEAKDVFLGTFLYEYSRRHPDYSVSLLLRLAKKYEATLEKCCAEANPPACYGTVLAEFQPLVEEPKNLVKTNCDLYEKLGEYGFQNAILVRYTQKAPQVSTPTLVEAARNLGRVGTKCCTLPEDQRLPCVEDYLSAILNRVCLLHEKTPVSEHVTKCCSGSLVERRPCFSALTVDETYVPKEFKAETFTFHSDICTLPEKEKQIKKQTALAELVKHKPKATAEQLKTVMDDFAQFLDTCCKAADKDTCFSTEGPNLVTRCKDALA
T8 sequence (P02769 25-607 limits assumed): as the sequence (P02769 25-607) above
T10 sequence (A2V9Z4 25-608 limits assumed): as the sequence (A2V9Z4 25-608) above
T7 sequence (P07724 25-608 limits assumed): as the sequence (P07724 25-608) above

Q: What does the source list for “aaasysdydvfgggtdfgpa (AAASYSDYDVFGGGTDFGPA; also: displayed on M13 pIII) [17D12-CDR3-NC, truncated 17D12 lacking flanking FR residues, non-constrained loop, on M13 phage]”?
A: Binding to negative control ovalbumin (Example 4) (ovalbumin): not to negative control peptide, ovalbumin; Non-specific binding to irrelevant protein ovalbumin (Example 5) (ovalbumin): no significant non-specific binding; Non-specific binding to irrelevant protein TNF [1]: no significant non-specific binding; Binding to CSA [2]: bind dose-dependently; Binding to HSA (Example 4) [3]: bind dose-dependently to HSA; Binding to HSA (Example 5, cross-reactivity) [3]: bind dose-dependently; Reactivity to BSA [4]: not apparent; Reactivity to MSA [5]: not apparent

Q: “2D3-17D12(S): 17D12 (FR3 Cys replaced with Ser) fused at C-terminus of VHH 2D3 without linker, on M13 phage (DTAVYYSNAAASYSDYDVFGGGTDFGPWGQGTQV; not fully specified (N-terminus); also: displayed on M13 phage)” was tested. Which “Binding to negative control ovalbumin (Example 7)” value (ovalbumin) did it give?
A: The value was “not to negative control peptide, ovalbumin”.

Q: And the “Binding to HSA (Example 7, VHH fusions on phage)” value [3]?
A: The value was “bind dose-dependently to HSA”.

Q: How did the “Binding to negative control ovalbumin (Example 7)” value (ovalbumin) turn out when “2D3-GlySer-17D12(S): 17D12 (FR3 Cys replaced with Ser) fused at C-terminus of VHH 2D3 via Gly4Ser-Gly3Ser linker, on M13 phage (GGGGSGGGSDTAVYYSNAAASYSDYDVFGGGTDFGPWGQGTQV; not fully specified (N-terminus); also: displayed on M13 phage)” was run?
A: Its value is “not to negative control peptide, ovalbumin”.

Q: What about the “Binding to HSA (Example 7, VHH fusions on phage)” value [3] of the same molecule?
A: Its value is “bind dose-dependently to HSA”.

Q: Which results are given for “dtavyycnaaasysdydvfgggtdfgpwgqgtqv (DTAVYYCNAAASYSDYDVFGGGTDFGPWGQGTQV; also: displayed on M13 pIII; listed as Lama glama) [17D12]”?
A: Binding to negative control ovalbumin (Example 4) (ovalbumin): not to negative control peptide, ovalbumin; Binding to negative control ovalbumin (Example 7) (ovalbumin): not to negative control peptide, ovalbumin; Non-specific binding to irrelevant protein ovalbumin (Example 5) (ovalbumin): no significant non-specific binding; Binding of monoclonal phage to ovalbumin (screening) (ovalbumin; screening after two selection rounds on HSA, phages diluted 1/10): not to ovalbumin; Non-specific binding to irrelevant protein TNF [1]: no significant non-specific binding; Binding to CSA [2]: bind dose-dependently; Binding to HSA (Example 4) [3]: bind dose-dependently to HSA; Binding to HSA (Example 7, VHH fusions on phage) [3]: bind dose-dependently to HSA; Binding to HSA (Example 5, cross-reactivity) [3]: bind dose-dependently; Binding of monoclonal phage to HSA (screening) ([3]; screening after two selection rounds on HSA, phages diluted 1/10, signal/background ratio very low): bind to HSA; Reactivity to BSA [4]: not apparent; Reactivity to MSA [5]: not apparent

B1: 17D12-CDR3-C, constrained truncated CDR3 loop of 17D12 without flanking FR, expressed on pIII of M13 phage (peptide, not shown: large carriers)
peptide: CAAASYSDYDVFGGGTDFGPAC
modifications: disulfide 1-22; not fully specified
notes: Tested as phage; also called constrained truncated peptide
Q: Does B1 bind (mouse serum albumin)?
A: Result: no binding

Q: Does B1 bind (bovine serum albumin)?
A: Result: no binding

Q: And the “EC50 (read off the curve)” value (human serum albumin)?
A: Its value is roughly 6e+10 phage/mL.

Q: Does B1 bind (cynomolgus serum albumin)?
A: Result: binds

B2: 2D3-GlySer-17D12(S): 17D12 peptide (FR3 Cys replaced with Ser) fused at the C-terminus of VHH 2D3 via a Gly4Ser-Gly3Ser linker, expressed on pIII of M13 phage (other, not shown: large carriers)
chain: GGGGSGGGSDTAVYYSNAAASYSDYDVFGGGTDFGPWGQGTQV
modifications: not fully specified (N-terminus); also: fused to C-terminus of VHH 2D3, displayed on M13 pIII
notes: VHH-peptide fusion tested as phage; also called VHH-GlySer-17D12(S)
Q: Does B2 bind [6]?
A: Result: no binding (tested: 100 x10^10 phage/mL)

B3: 2D3-17D12(S): 17D12 peptide (FR3 Cys replaced with Ser) fused at the C-terminus of VHH 2D3 without linker, expressed on pIII of M13 phage (other, not shown: large carriers)
chain: DTAVYYSNAAASYSDYDVFGGGTDFGPWGQGTQV
modifications: not fully specified (N-terminus); also: fused to C-terminus of VHH 2D3, displayed on M13 pIII
notes: VHH-peptide fusion tested as phage; also called VHH-17D12(S)
Q: Does B3 bind [6]?
A: Result: no binding (tested: 100 x10^10 phage/mL)
